Results taken from patent US20100196385A1 (AstraZeneca / MedImmune, published 2010).

How the values were obtained:
[1] = biological target: T1, human Jagged1 (human, UniProt P78504 34-1218); assay: FACS, 0.2 µg/ml, 293T cells with human Jagged1 vs mock
T1 construct: whole, on cells

[2] = biological target: T1, human Jagged1; assay: FACS, 5 µg/ml, 293T cells with human Jagged1 vs mock
Outline: (§1)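 Purified anti-DLL4 antibodies were diluted in PBS with 2% FCS and incubated with cells (50000/well, same buffer) for 1 h at 4 °C. Binding was read by flow cytometry as the shift in geometric mean fluorescence in transfected cells relative to mock-transfected cells.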

[3] = biological target: T1, human Jagged1; assay: FACS, 5 µg/ml, 293T cells with human Jagged1
Outline: as §1

[4] = biological target: T1, human Jagged1; assay: FACS, 1 µg/ml, 293T cells with human Jagged1 vs mock
[5] = biological target: T1, human Jagged1; assay: FACS, up to 300 µg/ml, HEK-293 cells stably overexpressing human Jagged1
[6] = biological target: T2, human Dll1 (human, UniProt O00548 18-723); assay: FACS, up to 300 µg/ml, HEK-293 cells stably overexpressing human Dll1
T2 construct: whole, on cells
T2 sequence (looked up): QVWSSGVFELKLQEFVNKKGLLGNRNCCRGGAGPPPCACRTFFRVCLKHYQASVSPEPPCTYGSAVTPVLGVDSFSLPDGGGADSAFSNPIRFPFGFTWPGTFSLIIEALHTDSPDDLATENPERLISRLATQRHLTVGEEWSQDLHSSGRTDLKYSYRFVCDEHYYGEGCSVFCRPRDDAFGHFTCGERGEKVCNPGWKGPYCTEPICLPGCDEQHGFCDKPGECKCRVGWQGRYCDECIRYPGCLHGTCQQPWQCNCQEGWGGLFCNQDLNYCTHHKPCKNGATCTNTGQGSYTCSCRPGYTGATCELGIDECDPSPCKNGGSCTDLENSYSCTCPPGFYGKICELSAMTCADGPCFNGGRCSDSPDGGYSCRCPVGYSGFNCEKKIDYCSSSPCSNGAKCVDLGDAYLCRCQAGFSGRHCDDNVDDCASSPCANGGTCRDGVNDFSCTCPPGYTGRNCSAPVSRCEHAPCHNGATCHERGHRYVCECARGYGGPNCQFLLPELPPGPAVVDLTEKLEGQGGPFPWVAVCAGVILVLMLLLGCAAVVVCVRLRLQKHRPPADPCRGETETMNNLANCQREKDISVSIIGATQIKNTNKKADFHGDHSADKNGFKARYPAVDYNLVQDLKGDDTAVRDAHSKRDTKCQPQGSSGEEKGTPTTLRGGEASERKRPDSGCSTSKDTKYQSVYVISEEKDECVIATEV

[7] = biological target: T3, full length human DLL4 (human, UniProt Q9NR61 27-685); assay: FACS competition, unlabeled antibody vs competitor Alexa-647 4B4, HEK293 cells with human DLL4
T3 construct: whole, on cells; also called native DLL4 expressed in HEK293 cells
T3 sequence (Q9NR61 27-685): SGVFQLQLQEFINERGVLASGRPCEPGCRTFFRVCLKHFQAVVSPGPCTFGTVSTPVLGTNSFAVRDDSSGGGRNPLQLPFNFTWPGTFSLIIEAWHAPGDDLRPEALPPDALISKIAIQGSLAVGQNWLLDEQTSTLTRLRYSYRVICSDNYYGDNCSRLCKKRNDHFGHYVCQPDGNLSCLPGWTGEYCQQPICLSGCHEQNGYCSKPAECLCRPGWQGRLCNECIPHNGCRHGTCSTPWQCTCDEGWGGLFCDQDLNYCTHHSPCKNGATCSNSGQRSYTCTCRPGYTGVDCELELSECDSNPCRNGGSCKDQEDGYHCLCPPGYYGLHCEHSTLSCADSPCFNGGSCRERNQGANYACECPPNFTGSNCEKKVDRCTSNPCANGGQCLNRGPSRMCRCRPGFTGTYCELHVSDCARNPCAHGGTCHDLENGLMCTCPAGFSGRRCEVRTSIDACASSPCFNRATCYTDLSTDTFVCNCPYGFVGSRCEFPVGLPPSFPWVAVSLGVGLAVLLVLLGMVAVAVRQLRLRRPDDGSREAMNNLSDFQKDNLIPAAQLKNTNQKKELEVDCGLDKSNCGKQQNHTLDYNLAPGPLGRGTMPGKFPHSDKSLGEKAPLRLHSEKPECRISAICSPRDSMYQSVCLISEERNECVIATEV
Protocol: (§2) The ability of the purified DLL4 antibodies to inhibit the binding of other DLL4 antibodies to human DLL4 was assessed using a FACS assay. Briefly, antibodies were directly labelled with Alexa-647 using a commercially available labelling kit (e.g. Molecular Probes catalog #A30009, A-20186) as per the manufacturer's instructions. To determine the level of cross-competition, unlabelled anti-DLL4 antibodies (final concentration: 10-0.01 μg/ml) diluted in PBS containing 2% FCS were added to DLL4-expressing HEK 293 cells (as described in example 6; 50000 cells/well diluted in PBS containing 2% FCS) and incubated for 1 h at 4° C. Subsequently, Alexa-647 labeled anti-DLL4 antibodies were added at a final concentration of 0.1 μg/ml and plates were incubated for a further 1 h at 4° C. prior to washing and reading on a FACSCalibur instrument. Data that summarizes the ability of unlabeled antibodies (10, 1, 0.1 μg/ml) to compete with labeled 21H3RK for binding to human DLL4 is included in FIG. 3. Additional data that summarizes the ability of unlabeled antibodies to compete with labeled 21H3RK and 4B4 for binding to human DLL4 is included in Table 22.

[8] = biological target: T3, full length human DLL4; assay: FACS competition, unlabeled antibody vs competitor Alexa-647 21H3RK, HEK293 cells with human DLL4
Protocol: as §2

[9] = biological target: T2, human Dll1; assay: Flow cytometry on HEK293F cells transiently expressing HuDll1; 21H3RK, goat anti-human IgG-FITC
Excerpt: This specificity is employed to deduce the binding epitope of Mab 21H3RK to human DLL4. Chimeric variants were engineered with portions of the extracellular domain of DLL4 replaced with the corresponding segments of DLL1. […] The resulting variants were cloned into a mammalian expression vector encoding a human cytomegalovirus major immediate early (hCMVie) enhancer, promoter and 5′-untranslated region for transient mammalian expression. The chimeric variants were transiently expressed in HEK293F cells as membrane-bound proteins for flow cytometric characterization with Mab 21H3RK. 48 h post-transfection, HEK293F transfectants were incubated with 1 μg/ml of Mab 21H3RK for 1 h on ice in PBS, washed, then incubated with goat anti-human IgG-FITC (Jackson ImmunoResearch Laboratories, PA) and analyzed with a LSRII flow cytometer (BD Biosciences, CA). The expression levels of all chimeric variants were is monitored by incubating with a mixture of both goat anti-mouse DLL4 (which also recognizes human DLL4) and goat anti-human DLL1 polyclonal antibodies (both from R&D Systems., MN), then detected with porcine anti-goat IgG-PE (Invitrogen, CA).

[10] = biological target: T4, full length mouse DLL4 (mouse, UniProt Q9JI71 27-686); assay: FACS competition vs mouse Notch1/Fc, HEK293 cells with mouse DLL4
T4 construct: whole, on cells
T4 sequence (Q9JI71 27-686): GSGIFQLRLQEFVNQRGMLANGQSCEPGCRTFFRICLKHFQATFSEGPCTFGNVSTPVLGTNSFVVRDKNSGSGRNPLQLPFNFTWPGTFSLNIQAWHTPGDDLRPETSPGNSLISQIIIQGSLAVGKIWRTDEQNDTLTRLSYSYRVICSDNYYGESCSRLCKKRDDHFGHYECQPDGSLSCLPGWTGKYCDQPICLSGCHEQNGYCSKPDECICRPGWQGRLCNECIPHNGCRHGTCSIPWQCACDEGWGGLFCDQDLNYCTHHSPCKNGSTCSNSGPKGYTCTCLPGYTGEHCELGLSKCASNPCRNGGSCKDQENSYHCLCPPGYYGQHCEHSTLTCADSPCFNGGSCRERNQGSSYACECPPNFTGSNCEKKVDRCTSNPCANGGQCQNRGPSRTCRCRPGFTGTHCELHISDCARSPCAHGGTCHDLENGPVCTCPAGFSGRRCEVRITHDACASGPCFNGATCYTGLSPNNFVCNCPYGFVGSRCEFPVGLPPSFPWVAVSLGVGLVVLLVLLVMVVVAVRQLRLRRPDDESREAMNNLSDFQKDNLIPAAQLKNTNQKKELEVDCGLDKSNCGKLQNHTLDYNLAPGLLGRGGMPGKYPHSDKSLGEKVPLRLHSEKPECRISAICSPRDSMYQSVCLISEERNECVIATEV
Protocol: (§3) Further experiments were performed on selected antibodies using HEK293 cells that were stably transfected with either human, mouse or cynomolgus monkey DLL4 using retroviral constructs. In these experiments, anti-DLL4 antibodies (final concentration: 10-0.01 μg/ml) diluted in PBS containing 2% FCS were added to DLL4-expressing HEK 293 cells (50000 cells/well diluted in PBS containing 2% FCS) and incubated for 1 h at 4° C. Subsequently, Alexa-647 labeled human, rat or APC labeled mouse Notch1/Fc (e.g. R&D Systems, catalog #3647-TK-050, 1057-TK-050, 5267-TK-050, respectively) was added at a final concentration of 0.01-0.5 μg/ml and plates were incubated for a further 2 h at 4° C. prior to washing and reading on a FACSCalibur instrument.

[11] = biological target: T3, full length human DLL4; assay: FACS titration, HEK293 cells with human DLL4
Protocol: The binding affinities of the purified antibodies for DLL4 was estimated using is both FACS and BIAcore techniques. […] The cells were then washed and incubated with goat anti-human IgG-Fc-Cy5+5 μg/mL 7-Amino-Actinomycin (7AAD) for 30 minutes at 4° C.
In this equation, F=mean fluorescence, LT=total molecular mAb concentration, P′=proportionality constant that relates arbitrary fluorescence units to bound mAb, M=cellular concentration in molarity, n=number of receptors per cell, B=background signal, and KD=equilibrium dissociation constant. For each mAb titration curve an estimate for KD is obtained as P′, n, B, and KD are allowed to float freely in the nonlinear analysis. Table 20 summarizes the affinity estimates for the anti-DLL4 antibodies for human and cynomolgus monkey DLL4 derived using the methodology described above

[12] = biological target: T3, full length human DLL4; assay: FACS competition vs human Notch1/Fc, HEK293 cells with human DLL4
Protocol: as §3

[13] = biological target: T5, human soluble DLL4 (R&D systems catalog #1056-D4-050) (human, UniProt Q9NR61 27-524); assay: Biacore T100, antibody immobilised, soluble human DLL4 as analyte
T5 construct: Catalog number as printed; perhaps the same product as #1506-D4; also called antigen DLL4
T5 sequence (Q9NR61 27-524 limits assumed): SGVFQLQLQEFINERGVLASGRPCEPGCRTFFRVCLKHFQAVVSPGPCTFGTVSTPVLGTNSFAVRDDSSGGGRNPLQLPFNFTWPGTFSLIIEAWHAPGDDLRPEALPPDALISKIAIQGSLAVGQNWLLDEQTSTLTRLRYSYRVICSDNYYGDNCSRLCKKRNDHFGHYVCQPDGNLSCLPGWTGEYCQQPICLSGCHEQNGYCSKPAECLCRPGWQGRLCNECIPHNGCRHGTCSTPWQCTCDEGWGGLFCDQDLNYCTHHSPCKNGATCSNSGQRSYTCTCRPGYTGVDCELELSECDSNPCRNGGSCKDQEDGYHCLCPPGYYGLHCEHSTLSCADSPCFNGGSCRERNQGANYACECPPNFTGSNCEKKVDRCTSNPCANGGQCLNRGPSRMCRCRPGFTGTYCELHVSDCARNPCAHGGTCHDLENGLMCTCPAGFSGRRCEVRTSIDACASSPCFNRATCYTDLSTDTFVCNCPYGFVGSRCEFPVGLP
Protocol: For Biacore analysis, each purified anti-DLL4 antibody was immobilized on a CM5 sensor chip within a T100 using standard amine coupling. Immobilization levels were kept below 200 RU. The concentration of DLL4 was determined by UV-VIS spectroscopy using a molar absorptivity at 280 nm of 110, 440 M⁻¹cm⁻¹, which was calculated from the sequence of the protein using a method developed by Pace et al. (G. R. Grimsley and C. N. Pace (2003) in Current Protocols in Protein Science (John Wiley & Sons, Inc.), 3.1.1-3.1.9). The antigen DLL4 (R&D systems; human catalog #1056-D4-050 or mouse, catalog #1389-D4-050) was diluted to a starting concentration of 32-64 nM and tested in a 3-fold dilution series in triplicate. The running buffer contained HBS-P with 0.1 mg/ml BSA and binding responses were collected at 23° C. Bound complexes were regenerated with a 15 s pulse of 10 mM of sodium hydroxide. The response data were globally fitted with a simple 1:1 interaction model and Table 20 summarizes the kₐ, kd and KD estimates obtained for the anti-DLL4 antibodies when binding to human soluble DLL4 was assessed.

T1 sequence (P78504 34-1218): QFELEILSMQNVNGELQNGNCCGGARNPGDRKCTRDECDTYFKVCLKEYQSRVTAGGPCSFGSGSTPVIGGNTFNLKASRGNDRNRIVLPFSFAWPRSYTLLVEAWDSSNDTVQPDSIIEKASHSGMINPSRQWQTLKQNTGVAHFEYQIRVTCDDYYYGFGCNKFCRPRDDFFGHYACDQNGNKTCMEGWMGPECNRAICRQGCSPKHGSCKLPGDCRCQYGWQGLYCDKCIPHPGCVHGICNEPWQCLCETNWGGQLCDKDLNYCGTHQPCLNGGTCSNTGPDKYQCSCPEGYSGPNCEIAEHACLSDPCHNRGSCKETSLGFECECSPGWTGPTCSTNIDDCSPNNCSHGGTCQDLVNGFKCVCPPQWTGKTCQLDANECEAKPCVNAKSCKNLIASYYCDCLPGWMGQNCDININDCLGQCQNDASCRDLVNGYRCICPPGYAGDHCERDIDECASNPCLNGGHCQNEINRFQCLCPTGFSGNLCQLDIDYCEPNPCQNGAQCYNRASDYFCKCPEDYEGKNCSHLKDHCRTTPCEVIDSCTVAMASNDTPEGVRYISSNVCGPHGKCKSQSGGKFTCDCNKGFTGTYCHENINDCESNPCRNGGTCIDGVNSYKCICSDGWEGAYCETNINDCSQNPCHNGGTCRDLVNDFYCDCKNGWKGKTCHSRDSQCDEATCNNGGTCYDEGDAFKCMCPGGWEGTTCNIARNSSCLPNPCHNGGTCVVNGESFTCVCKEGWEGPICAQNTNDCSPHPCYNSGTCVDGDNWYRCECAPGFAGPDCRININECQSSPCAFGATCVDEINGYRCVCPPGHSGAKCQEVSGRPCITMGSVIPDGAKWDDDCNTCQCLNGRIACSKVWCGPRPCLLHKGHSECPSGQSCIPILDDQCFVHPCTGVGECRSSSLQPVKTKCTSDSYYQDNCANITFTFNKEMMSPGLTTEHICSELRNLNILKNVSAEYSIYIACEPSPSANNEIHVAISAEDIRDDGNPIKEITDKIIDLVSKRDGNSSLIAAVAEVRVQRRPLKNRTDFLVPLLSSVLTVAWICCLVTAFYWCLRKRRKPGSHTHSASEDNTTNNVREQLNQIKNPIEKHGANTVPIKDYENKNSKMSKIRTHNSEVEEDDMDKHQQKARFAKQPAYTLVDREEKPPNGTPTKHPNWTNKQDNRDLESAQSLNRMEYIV

B1: human Notch3/Fc chimera (Fc fusion, UniProt Q9UM47 40-467, looked up)
chain: APPCLDGSPCANGGRCTQLPSREAACLCPPGWVGERCQLEDPCHSGPCAGRGVCQSSVVAGTARFSCRCPRGFRGPDCSLPDPCLSSPCAHGARCSVGPDGRFLCSCPPGYQGRSCRSDVDECRVGEPCRHGGTCLNTPGSFRCQCPAGYTGPLCENPAVPCAPSPCRNGGTCRQSGDLTYDCACLPGFEGQNCEVNVDDCPGHRCLNGGTCVDGVNTYNCQCPPEWTGQFCTEDVDECQLQPNACHNGGTCFNTLGGHSCVCVNGWTGESCSQNIDDCATAVCFHGATCHDRVASFYCACPMGKTGLLCHLDDACVSNPCHEDAICDTNPVNGRAICTCPPGFTGGACDQDVDECSIGANPCEHLGRCVNTQGSFLCQCGRGYTGPRCETDVNECLSGPCRNQATCLDRIGQFTCICMAGFTGTYCE
notes: Positive control for Jagged1; also called N3 Fc; Fc part of the bought chimera not given, not described
Jagged1/mock ratio [1]: 1.96
Jagged1/mock ratio [2]: 3.87
Jagged1/293T X Geo mean [3]: 51
Jagged1/mock ratio [4]: 2.88

B2: 21H3RK (antibody, V domains shown)
VH: QVQLVQSGAEVKKPGASVKVSCKASGYTFTNYGITWVRQAPGQGPEWMGWISAYNGNTNYAQKLQDRVTVTTDTSTSTAYMELRSLRSDDTAVYYCARDRVPRIPVTTEAFDIWGQGTMVTVSS
VL: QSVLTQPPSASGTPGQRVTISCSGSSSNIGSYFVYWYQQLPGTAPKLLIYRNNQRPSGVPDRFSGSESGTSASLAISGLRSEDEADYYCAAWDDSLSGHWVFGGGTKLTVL
notes: also called Mab 21H3RK; Monoclonal 21H3RK
fold over background [5]: < 2.5 fold
fold over background [6]: < 2.5 fold
IC50 [7]: 0.223 µg/mL
IC50 [8]: 0.214 µg/mL
binding result [9]: no binding (tested: 1 ug/ml (single concentration))

B3: 21H3RK IgG1 (antibody, V domains shown)
VH: QVQLVQSGAEVKKPGASVKVSCKASGYTFTNYGITWVRQAPGQGPEWMGWISAYNGNTNYAQKLQDRVTVTTDTSTSTAYMELRSLRSDDTAVYYCARDRVPRIPVTTEAFDIWGQGTMVTVSS
VL: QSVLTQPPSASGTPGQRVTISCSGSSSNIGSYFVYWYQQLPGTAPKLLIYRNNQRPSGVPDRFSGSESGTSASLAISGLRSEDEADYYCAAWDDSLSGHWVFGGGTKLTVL
notes: IgG1; VL is 21H3 VLOP1 (R107K)
IC50 [10]: 42 nM
Kd [11]: 0.155 nM
IC50 [12]: 0.58 nM
Kd [13]: 0.493 nM
koff [13]: 0.000166 s⁻¹
kon [13]: 337000 M⁻¹ s⁻¹
